Here are results for three molecules from article PMC6822988, “Native adiponectin in serum binds to mammalian cells expressing T-cadherin, but not AdipoRs or calreticulin” (eLife, 2019).

For data set [1], the target named is adiponectin (HMW) (Homo sapiens) (UniProt Q15848). To be noted: cited from earlier work.
Data set [2] deals with the molecule itself. As to the kind of experiment: native gel or EMSA; native-PAGE of purified or recombinant adiponectin, 50 ng adiponectin, Western blot. (In general: In EMSA bound probe runs differently from free probe, usually more slowly.)
Data set [3] deals with the molecule itself. As to the kind of experiment: native gel or EMSA; native-PAGE of mouse serum, 50 ng adiponectin, Western blot.

adiponectin (HMW) (Homo sapiens), sequence (Q15848 19-244): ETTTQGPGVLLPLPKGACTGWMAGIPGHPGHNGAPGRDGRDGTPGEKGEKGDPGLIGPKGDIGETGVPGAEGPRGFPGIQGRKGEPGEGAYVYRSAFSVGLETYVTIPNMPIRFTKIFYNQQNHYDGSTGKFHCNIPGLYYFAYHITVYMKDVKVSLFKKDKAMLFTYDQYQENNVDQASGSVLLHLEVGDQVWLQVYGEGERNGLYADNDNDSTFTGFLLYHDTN

Consider T-cadherin (from UniProt P55290), for which the dissociation constant Kd (commonly the equilibrium constant for the complex coming apart) in data set [1] was 1 nM.

B1: Full-length mammalian recombinant mouse adiponectin (ligand, UniProt Q60994 18-247, looked up)
chain: EDDVTTTEELAPALVPPPKGTCAGWMAGIPGHPGHNGTPGRDGRDGTPGEKGEKGDAGLLGPKGETGDVGMTGAEGPRGFPGTPGRKGEPGEAAYVYRSAFSVGLETRVTVPNVPIRFTKIFYNQQNHYDGSTGKFYCNIPGLYYFSYHITVYMKDVKVSLFKKDKAVLFTYDQYQEKNVDQASGSVLLHLEVGDQVWLQVYGDGDHNGLYADNVNDSTFTGFLLYHDTN
notes: adiponectin, mouse, full-length recombinant, produced in HEK293 cells; contains less 6-mer and HMW multimer than serum adiponectin; the secreted product probably lacks the signal peptide; also called recombinant adiponectin; full-length recombinant adiponectin produced in HEK293 cells; source: bought: BioVendor (RD272023100), produced in HEK293 cells
Regarding B1, the binding result in data set [2] is on record as “binds”.

B2: native mouse adiponectin in mouse serum (ligand, UniProt Q60994 18-247, looked up)
chain: EDDVTTTEELAPALVPPPKGTCAGWMAGIPGHPGHNGTPGRDGRDGTPGEKGEKGDAGLLGPKGETGDVGMTGAEGPRGFPGTPGRKGEPGEAAYVYRSAFSVGLETRVTVPNVPIRFTKIFYNQQNHYDGSTGKFYCNIPGLYYFSYHITVYMKDVKVSLFKKDKAVLFTYDQYQEKNVDQASGSVLLHLEVGDQVWLQVYGDGDHNGLYADNVNDSTFTGFLLYHDTN
notes: adiponectin, mouse, circulating protein of serum; multimers (6-mer and HMW multimer) seen by native-PAGE; Used both as whole serum and as adiponectin purified from serum; Mixture of multimers; also called mouse serum adiponectin; native adiponectin; source: endogenous, serum of C57BL6J mice, used as serum without processing; also purified from mouse serum (Fukuda et al., 2017)
Regarding B2, in data set [3], the binding result is reported as “binds”.
